T1: 人FGL1-his蛋白(Sinobio;Cat:13484-H08B) (human, UniProt Q08830 23-312)
T1 construct: Bought protein; also called 重组人FGL1-his蛋白; not shown: his tag
T1 sequence (looked up): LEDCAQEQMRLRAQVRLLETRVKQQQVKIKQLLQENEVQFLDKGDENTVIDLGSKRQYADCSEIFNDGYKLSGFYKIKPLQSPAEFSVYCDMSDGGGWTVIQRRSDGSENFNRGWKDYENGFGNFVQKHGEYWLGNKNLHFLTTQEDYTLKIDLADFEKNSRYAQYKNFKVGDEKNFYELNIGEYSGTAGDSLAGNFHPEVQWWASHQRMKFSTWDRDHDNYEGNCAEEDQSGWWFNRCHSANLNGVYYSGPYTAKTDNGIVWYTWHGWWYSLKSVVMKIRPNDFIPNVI

T2: 鼠FGL1-his (mouse, UniProt Q71KU9 23-314, limits assumed)
T2 construct: also called 小鼠FGL1蛋白; 鼠FGL1蛋白; not shown: his tag
T2 sequence (looked up): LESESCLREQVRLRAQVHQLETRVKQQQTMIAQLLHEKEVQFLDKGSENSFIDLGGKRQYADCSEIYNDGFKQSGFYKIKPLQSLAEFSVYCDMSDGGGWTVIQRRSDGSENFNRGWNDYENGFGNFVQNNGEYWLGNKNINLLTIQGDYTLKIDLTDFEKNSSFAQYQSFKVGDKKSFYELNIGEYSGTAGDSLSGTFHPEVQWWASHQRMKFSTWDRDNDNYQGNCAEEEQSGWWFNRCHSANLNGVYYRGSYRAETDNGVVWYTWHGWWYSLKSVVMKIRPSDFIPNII

B1: SH-03 (antibody, V domains shown)
VH: QVQLQQSGPELVKPGASVKISCKASGYTFTDYYINWLRQKPGQGLEWIGWIYPGSANTNYNEKFKGKAILTVDTSSSTAYMQLSSLTSEDTAVYFCARWLLRSAYWGQGTLVTVSA
VL: DIVLSQSPAILSASPGEKVTMTCRASSSVSYMYWYQQKPGSSPKPWIYATSNLASGVPARFSGSGSGTSYSLTISRVEAEDAATYYCQQWSSNPYTFGGGTKLEIK
notes: From hybridoma; also called 抗体SH-03; not shown: 轻链恒定区
B2: SH-08 (antibody, V domains shown)
VH: EVQLVESGGGLVKPGGSLRLSCAASGFTFSSYSMNWVRQAPGKGLEWVSSISSSSSYIYYADSVKGRFTISRDNAKNSLYLQMNSLRAEDTAVYYCARDFPSPSGGRGFRPTTARGYGMDVWGQGTTVTVSS
VL: QSALTQPASVSGSPGQSIIISCTGSKSDIGTYNFVSWYQQHPGKAPNVIIYNVNKRPSGVSDRFSGSKSGNTASLTISGLQAEDEADFYCSSYTSSGTHVFGSGTKVIVL
notes: From the human natural phage display library; also called 抗体SH-08; not shown: 轻链恒定区
B3: SH-09 (antibody, human IgG1, V domains shown)
VH: QVQLVESGGGLVQPGGSLRLSCTASGFNLDFYTIGWFLQAPGKEREGVSCISNSGGSSVYADSVKGRFTISRDSAKNTVYLQMNSLDPEDTAVYYCAALAGRGCMRSPITTDEYDSWGQGTQVTVSS
notes: Heavy-chain-only antibody from the alpaca immune phage library; expressed in CHO cells; also called 抗体SH-09
B4: SH-10 (antibody, human IgG1, V domains shown)
VH: EVQLVESGGGLVQPGGSLRLSCAASGDTLDYYAIGWFRQAPGKEREGVSCIRSSGSGPHYSDSVQDRFIISRDNARGTVYLQMNSLKPEDTAVYYCAATEGFYCSPTLSQGEYDYWGQGTQVTVSS
notes: Heavy-chain-only antibody from the alpaca immune phage library; expressed in CHO cells; also called 抗体SH-10
B5: SH-06 (antibody, V domains shown)
VH: QVQLQESGPGLVKPSQTLSLTCTVSGGSISSGGYYWSWIRQHPGKGLEWIGYIYYSGSTYYNPSLKSRVTISVDTSKNQFSLKLSSVTAADTAVYYCARDSVMGYAPRVRAFDIWGQGTMVTVSS
VL: QSALTQPPSASGTPGQRVTISCSGSSSNIGTNTVNWYQQLPGTAPKLLIYSTNQRPSGVPDRFSGSKSGTSASLAISGLQSEDEADYYCSSWAGDLNGRLFGGGTKLTVL
notes: From the human natural phage display library; also called 抗体SH-06; not shown: 轻链恒定区
B6: SH-05 (antibody, V domains shown)
VH: EVQLVQSGGVVVQPGGSLRLSCAASGFTFDDYAMHWVRQAPGKGLEWVSLISWDGGSTYYADSVKGRFTISRDNSKNTLYLQMNSLRAEDTAVYYCARNSGRRNWFDPWGQGTLVTVSS
VL: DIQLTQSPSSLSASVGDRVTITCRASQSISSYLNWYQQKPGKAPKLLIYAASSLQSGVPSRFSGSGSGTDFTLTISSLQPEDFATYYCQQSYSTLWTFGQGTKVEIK
notes: From the human natural phage display library; also called 抗体SH-05; not shown: 轻链恒定区
B7: SH-07 (antibody, V domains shown)
VH: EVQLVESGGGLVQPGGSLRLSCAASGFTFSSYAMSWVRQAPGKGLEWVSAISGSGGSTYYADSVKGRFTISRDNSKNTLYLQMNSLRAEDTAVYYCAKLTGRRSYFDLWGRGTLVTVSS
VL: DIQMIQSPSSLSASVGDRVTITCRASQSISHYLNWYQQKPGKVPKLLIYAASSLQSGVPSRFSGSGSGTDFTLTISSLQPEDFATYYCQQSYSTPSFGQGTKVEIK
notes: From the human natural phage display library; also called 抗体SH-07; not shown: 轻链恒定区
B8: SH-04 (antibody, V domains shown)
VH: EVQLQQSGPELEKPGASVKMSCKASGYTFTRYWMHWVKQRPGQGLEWIGMIDPSDSYTSYNQKFKGKATLTVDTSSSTAYMQLSSLTSEDSAVYYCTLRPGLDYWGQGTTLTVSS
VL: DIVMTQSQKFMSTSVGDRVSVTCKASQNVGTNVAWYQQKPGQSPKALIYSASYRYSGVPDRFTGSGSGTDFTLTISNVQSEDLAEYFCQQYNSYPLTFGGGTKLEIK
notes: From hybridoma; also called 抗体SH-04; not shown: 轻链恒定区

For the first experiment, the target named is T1, 人FGL1-his蛋白(Sinobio;Cat:13484-H08B). The experiment is described as follows: ELISA, plate coated with human FGL1-his.
For B1, the binding result was “binds”.
As to B2, the binding result is “binds”.
On to B3, for which the binding result is listed as “binds”.
Same read-out and setting: in the case of B4 it was “binds”; in that of B5, “binds”.
As to B6, the binding result is reported as “binds”.
As for B7, the binding result is “binds”.
On to B8, for which the binding result is listed as “binds”.

The target of a further experiment is T2, 鼠FGL1-his. The experiment is described as follows: human/mouse cross-reactivity (ELISA of Example 8).
As to B7, the binding result is listed as “binds”.

These data come from patent CN113912731A (SHENGHE CHINA BIO PHARMACY CO LTD, dated 2022).
